Data on 3 molecules can be found in patent US7265202 (University of California, dated 2007).

For assay [1], the target named is T1, STAT1 in IL6-treated murine M1 cells (murine, UniProt P42225 2-749, the filing says IL6 stimulation can induce tyrosine phosphorylation of STAT1).
T1 sequence (looked up): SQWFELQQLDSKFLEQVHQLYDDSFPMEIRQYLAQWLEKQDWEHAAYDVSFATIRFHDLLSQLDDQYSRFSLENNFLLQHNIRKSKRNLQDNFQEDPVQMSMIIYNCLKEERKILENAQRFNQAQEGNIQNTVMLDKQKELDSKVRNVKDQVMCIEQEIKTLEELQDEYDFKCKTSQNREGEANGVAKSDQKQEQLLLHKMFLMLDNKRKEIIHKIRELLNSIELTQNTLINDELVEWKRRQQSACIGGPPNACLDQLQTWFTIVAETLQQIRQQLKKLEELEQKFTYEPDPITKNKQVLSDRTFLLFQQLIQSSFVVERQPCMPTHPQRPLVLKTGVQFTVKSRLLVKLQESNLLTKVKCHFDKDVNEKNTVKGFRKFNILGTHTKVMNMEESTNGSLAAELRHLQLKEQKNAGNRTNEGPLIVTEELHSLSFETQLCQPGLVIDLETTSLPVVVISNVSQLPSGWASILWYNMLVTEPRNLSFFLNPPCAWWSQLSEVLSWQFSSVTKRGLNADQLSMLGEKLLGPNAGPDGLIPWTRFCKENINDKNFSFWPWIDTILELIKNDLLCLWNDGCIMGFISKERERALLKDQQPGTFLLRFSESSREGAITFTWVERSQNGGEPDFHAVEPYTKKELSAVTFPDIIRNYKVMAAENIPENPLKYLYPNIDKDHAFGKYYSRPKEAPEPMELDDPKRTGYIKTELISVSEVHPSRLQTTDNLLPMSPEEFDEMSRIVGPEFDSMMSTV
Put plainly: co-immunoprecipitation with anti-PIAS3c from M1 cells, blot reprobed with antibody to STAT1. Here is the method:
To identify which STAT protein interacts with PIAS3, protein extracts were prepared from murine myeloblast M1 cells, which were untreated or treated with IL6. Proteins immunoprecipitated with anti-PIAS3c were analyzed by protein immunoblot with anti-STAT3. STAT3 was present in a PIAS3 immunoprecipitate from IL6 treated M1 cells but not in an immunoprecipitate from untreated M1 cells (FIG. 2A). […] IL6 stimulation can induce tyrosine phosphorylation of STAT1 as well as STAT3 (Sadowski et al. (1993)). The protein blot was therefore washed and reprobed with antibody to STAT1. STAT1 was not present in PIAS3 immunoprecipitates (FIG. 2A). Furthermore, PIAS3 was not found to be associated with STAT1 in a number of cell lines treated with interferon-γ.
Protein extracts from M1 cells, untreated (−) or treated with IL6 for 10 min (+), were subjected to immunoprecipitation (IP) with anti-PIAS3c. The blot was probed with anti-STAT. The same blot was then reprobed with anti-PIAS3c. The filter was washed and reprobed with anti-STAT1.

The target of assay [2] is T2, STAT1 in interferon-treated human cells (human, UniProt P42224 2-750, limits assumed, phosphotyrosine at Tyr-701 (IFN-induced)).
T2 construct: also called p-STAT1; wild type STAT1
T2 sequence (looked up): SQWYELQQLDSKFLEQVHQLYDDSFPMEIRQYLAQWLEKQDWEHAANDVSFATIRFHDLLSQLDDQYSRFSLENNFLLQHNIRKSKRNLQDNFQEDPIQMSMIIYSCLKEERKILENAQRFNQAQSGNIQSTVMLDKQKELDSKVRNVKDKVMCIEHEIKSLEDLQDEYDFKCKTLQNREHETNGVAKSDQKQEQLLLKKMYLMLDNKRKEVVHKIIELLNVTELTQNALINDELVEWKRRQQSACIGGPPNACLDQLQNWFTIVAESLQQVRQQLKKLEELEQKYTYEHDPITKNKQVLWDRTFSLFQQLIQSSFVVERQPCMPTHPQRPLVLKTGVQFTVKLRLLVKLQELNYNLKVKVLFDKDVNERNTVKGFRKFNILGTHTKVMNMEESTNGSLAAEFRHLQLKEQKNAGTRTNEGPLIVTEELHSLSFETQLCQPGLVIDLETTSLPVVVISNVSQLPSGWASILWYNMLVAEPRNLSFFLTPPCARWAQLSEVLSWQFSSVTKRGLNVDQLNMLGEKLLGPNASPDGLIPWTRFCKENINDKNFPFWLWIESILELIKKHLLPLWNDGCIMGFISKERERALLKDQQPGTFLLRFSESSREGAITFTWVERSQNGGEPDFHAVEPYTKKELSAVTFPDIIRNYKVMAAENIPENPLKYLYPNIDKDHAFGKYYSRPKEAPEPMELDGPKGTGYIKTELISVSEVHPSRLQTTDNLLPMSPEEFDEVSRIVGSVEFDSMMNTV
Put plainly: co-immunoprecipitation with anti-PIAS3c from HepG2 cells untreated or treated with IL6 or IFN-γ, anti-STAT1 blot.

The target of assay [3] is STAT3 in cytokine-treated human cells (CNTF, OM or IL6) (human, UniProt P40763 2-770, limits assumed, tyrosine phosphorylated after cytokine treatment (site not given)). Description: co-immunoprecipitation with anti-PIAS1n from HepG2 cells untreated or treated with IL6 or IFN-γ, anti-STAT3 blot.
In assay [4] the target is STAT2 in IFN-treated human Daudi B cells (human, UniProt P52630 1-851). Put plainly: co-immunoprecipitation with anti-PIAS1n from IFN-treated Daudi B cells, immunoblot with anti-STAT1 and anti-STAT2. The procedure: Daudi cells were treated with […] for the times indicated. Whole cell extracts were prepared and one half of these extracts were used for immunoprecipitation with anti-PIAS1n (left panel). Immunoprecipitation was carried out as described in (A) and the filter was probed with anti-STAT1 and anti-STAT2. The same filter was washed and reprobed with anti-PIAS1n (lower panel). The other half of protein extracts were subjected to immunoprecipitation with anti-STAT1 (right panel). The filter was probed with a mixture of anti-STAT1 and anti-STAT2 antibodies. p-STAT1: phosphorylated STAT1.
Human Daudi B cells were untreated or treated with IFN-α for various time periods. Protein extracts were prepared and subjected to immunoprecipitation with anti-PIAS1n followed by immunoblot with both anti-STAT1 and STAT2 antibodies. While STAT1 was associated with PIAS1 in IFN-treated cells, STAT2 was absent in PIAS1 immunoprecipitates (FIG. 8B).

Chain of STAT2 in IFN-treated human Daudi B cells (P52630 whole entry): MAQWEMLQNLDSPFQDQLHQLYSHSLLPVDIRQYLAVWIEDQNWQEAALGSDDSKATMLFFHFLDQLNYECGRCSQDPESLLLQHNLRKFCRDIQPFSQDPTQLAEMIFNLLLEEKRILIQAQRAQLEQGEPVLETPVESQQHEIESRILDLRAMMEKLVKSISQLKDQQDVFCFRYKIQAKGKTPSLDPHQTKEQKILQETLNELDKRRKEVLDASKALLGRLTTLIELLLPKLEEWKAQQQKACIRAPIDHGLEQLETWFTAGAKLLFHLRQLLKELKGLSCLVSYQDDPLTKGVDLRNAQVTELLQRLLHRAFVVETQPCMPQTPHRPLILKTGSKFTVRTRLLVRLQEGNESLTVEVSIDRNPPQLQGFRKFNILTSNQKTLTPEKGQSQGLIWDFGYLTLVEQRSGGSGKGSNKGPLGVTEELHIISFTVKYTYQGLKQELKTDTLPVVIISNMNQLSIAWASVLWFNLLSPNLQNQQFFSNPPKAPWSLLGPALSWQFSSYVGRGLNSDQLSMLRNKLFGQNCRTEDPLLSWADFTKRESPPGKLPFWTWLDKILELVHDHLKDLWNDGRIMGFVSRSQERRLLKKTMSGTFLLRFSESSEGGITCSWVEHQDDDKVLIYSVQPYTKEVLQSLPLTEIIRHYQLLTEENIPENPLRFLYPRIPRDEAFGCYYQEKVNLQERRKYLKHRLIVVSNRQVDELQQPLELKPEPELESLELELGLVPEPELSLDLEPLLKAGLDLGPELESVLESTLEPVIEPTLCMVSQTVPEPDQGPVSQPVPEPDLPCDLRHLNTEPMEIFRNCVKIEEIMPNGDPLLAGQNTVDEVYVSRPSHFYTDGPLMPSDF
Chain of STAT3 in cytokine-treated human cells (CNTF, OM or IL6) (P40763 2-770 limits assumed): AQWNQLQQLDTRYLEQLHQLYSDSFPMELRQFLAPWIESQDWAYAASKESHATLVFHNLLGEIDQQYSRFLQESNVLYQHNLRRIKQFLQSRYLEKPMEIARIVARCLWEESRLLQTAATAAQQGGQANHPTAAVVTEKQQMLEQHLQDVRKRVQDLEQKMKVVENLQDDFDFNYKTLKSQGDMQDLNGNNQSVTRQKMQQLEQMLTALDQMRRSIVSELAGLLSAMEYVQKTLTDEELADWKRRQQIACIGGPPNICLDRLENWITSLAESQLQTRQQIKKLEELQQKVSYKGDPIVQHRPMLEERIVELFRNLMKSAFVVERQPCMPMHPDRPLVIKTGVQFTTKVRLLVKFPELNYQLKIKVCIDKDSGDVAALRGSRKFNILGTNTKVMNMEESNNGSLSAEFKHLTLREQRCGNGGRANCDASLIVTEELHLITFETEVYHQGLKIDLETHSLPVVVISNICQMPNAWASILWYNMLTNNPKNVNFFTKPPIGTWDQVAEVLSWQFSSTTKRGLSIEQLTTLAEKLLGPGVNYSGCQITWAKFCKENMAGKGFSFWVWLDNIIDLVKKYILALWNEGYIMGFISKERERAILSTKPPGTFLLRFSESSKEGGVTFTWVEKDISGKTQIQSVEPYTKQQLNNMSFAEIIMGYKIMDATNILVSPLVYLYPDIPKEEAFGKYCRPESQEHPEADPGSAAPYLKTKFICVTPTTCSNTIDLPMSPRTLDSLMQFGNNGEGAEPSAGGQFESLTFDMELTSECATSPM

B1: murine PIAS3 (other)
chain: MVMSFRVSELQVLLGFAGRNKSGRKHELLAKALHLLKSSCAPSVQMKIKELYRRRFPRKTLGPSDLSLLSLPPGTSPPVHPDVTMKPLPFYEVYGELIRPTTLASTSSQRFEEAHFTFALTPQQLQQILTSREVLPGAKCDYTIQVQLRFCLCETSCPQEDYFPPNLFVKVNGKLCPLPGYLPPTKNGAEPRGPAVRSTSHPWLDSQPLSPTPSLLIGHLSLDGITPCPCLVRQLTAGTLLQKLRAKGIRNPDHSRALIKEKLTADPDSEVATTSLPGVTHVPARKMRLTVPCRALTCAHLQSFDAALYLQMNEKKPTWTCPVCDKKAPYESLIIDGLFMEILNSCSDDDEIQFMEDGSWCPMKPKKEASEVCPPPGYGLDGLQYSAVQEGIQPESKKRVEVIDLTIESSSDEEDLPPTKKHCSPTSAAIPALPGSKGALTSGHQPSSVLRSPAMGTLGSDFLSSLPVHEYPPAFPLGADIQGLDLFSFLQTESQQYGPSVIISLDEQDTLGHFFQYRGTPSHFLGPLAPTLGSCHGSSTPAPPPGRVSSIVAPGSSLREGHGGPLPSGPSLTGCRSDVISLD
notes: Endogenous protein immunoprecipitated with anti-PIAS3c from M1 cell extracts; also called mPIAS3; mouse PIAS3
With B1, the binding result in assay [1] is “no binding”.

B2: human PIAS3 (other)
chain: MVMSFRVSELQVLLGFAGRNKSGRKHELLAKALHLLKSSCAPSVQMKIKELYRRRFPRKTLGPSDLSLLSLPPGTSPPVHPDVTMKPLPFYEVYGELIRPTTLASTSSQRFEEAHFTFALTPQQLQQILTSREVLPGAKCDYTIQVQLRFCLCETSCPQEDYFPPNLFVKVNGKLCPLPGYLPPTKNGAEPRGPAVRSTSHPWLDSQPLSPTPSLLIGMLSLDGITPCPCLVRQLTAGTLLQKLRAKGIRNPDHSRALIKEKLTADPDSEVATTSLPGVTHVPARKMRLTVPCRALTCAHLQSFDAALYLQMNEKKPTWTCPVCDKKAPYESLIIDGLFMEILNSCSDCDEIQFMEDGSWCPMKPKKEASEVCPPPGYGLDGLQYSAVQEGIQPESKKRVEVIDLTIESSSDEEDLPPTKKQCSVTSAAIPALLGSKGVLTSGHQPSSVLRSPAMGTLGSDFLSSLPVHEYPPAFPLGADIQGLDLFSFLQTESQQYGPSVIISLDEQDTLGHFFQYRGTPSHFLGPLAPTLGSCHGSSTPAPPPGRVSSIVAPGSSLREGHGGPLPSGPSLTGCRSDVISLD
notes: Endogenous protein immunoprecipitated with anti-PIAS3c from human HepG2 cells; also called hPIAS3
In the case of B2, the binding result in assay [2] was “no binding”.

B3: human PIAS1 (other)
chain: ADSAELKQMVMSLRVSELQVLLGYAGRNKHGRKHELLTKALHLLKAGCSPAVQMKIKELYRRRFPQKIMTPADLSIPNVHSSPMPATLSPSTIPQLTYDGHPASSPLLPVSLLGPKHKLELPHLTSALHPVHPDIKLQKLPFYDLLDELIKPTSLASDNSQRFRETCFAFALTPQQVQQISSSMDISGTKCDFTVQVQLRFCLSETSCPQEDHFPPNLCVKVNTKPCSLPGYLPPTKNGVEPKRPSRPINITSLVRLSTTVPNTMCSWTAEIGRNYSMAVYLVKQLSSTVLLQRLRAKGIRNPDHSRALIKEKLTADPDSEIATTSLRVSLLCPLGKMRLTIPCRALTCSHLQCFDATLYIQMNEKKPTWVCPVCDKKAPYEHLIIDGLFMEILKYCTDCDEIQFKEDGTWAPMRSKKEVQEVSASYNGVDGCLSSTLEHQVASHHQSSNKNKKVEVIDLTIDSSSDEEEEEPSAKRTCPSLSPTSPLNNKGILSLPHQASPVSRTPSLPAVDTSYINTSLIQDYRHPFHMTPMPYDLQGLDFFPFLSGDNQHYNTSLLAAAAAAVSDDQDLLHSSRFFPYTSSQMFLDQLSAGGSTSLPTTNGSSSGSNSSLVSSNSLRESHSHTVTNRSSTDTASIFGIIPDIISLD
notes: also called hPIAS1
With B3, the binding result in assay [3] and in assay [4] was “no binding” throughout.
